The values that follow come from US20240018268A1.

The test concerns the target binding reagent of the similar bridge assay for the anti-CD19 (SJ25C1) CAR. The experiment in a line: similar bridge assay for the anti-CD19 (SJ25C1) CAR.

Sequence of binding reagent of the similar bridge assay for the anti-CD19 (SJ25C1) CAR (scFv, as listed by the source limits assumed): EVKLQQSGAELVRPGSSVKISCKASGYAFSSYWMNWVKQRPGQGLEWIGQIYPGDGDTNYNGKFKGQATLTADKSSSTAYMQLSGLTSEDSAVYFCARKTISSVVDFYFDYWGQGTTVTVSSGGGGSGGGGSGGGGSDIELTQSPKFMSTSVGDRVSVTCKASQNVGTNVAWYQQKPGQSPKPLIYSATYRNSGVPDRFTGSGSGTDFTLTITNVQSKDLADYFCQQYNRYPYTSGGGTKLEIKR

B1: anti-idiotype antibody clone A-1 (anti-ID A-1) (antibody, mouse IgG1, kappa, V domains shown)
VH: QVQLQQPGSELVRPGGSVKLSCKASDYTFTSYWMHWVRQRPGQGLEWIGNIYPGSGGTNYDEKFKRKATLTVDTSSSTAYMQLRSLTSEDSAVYYCTREVTTVAYYYSMDYWGQGTSVTVSS
VL: DIQMTQTTSSLSASLGDRVTISCRASQDISNYLNWYQQKPDGTVKLLIYYTSRLHSGVPSRFSGSGSGTDYSLTISNLEQEDIATYFCQQGKTVPFTFGSGTKLEIKR
Regarding B1, the fold signal over plasma background was greater than 5 fold and the sensitivity of the bridge assay was less than 100 ng/mL.
